# Test results published in patent US20170174733A1.
# Like-named read-outs stand apart in the source and are kept apart here.
# What was measured:
# rat VEGF (rat) [1] = molecular target: rat VEGF (rat) (UniProt P16612); assay: cell-based or functional assay
# mouse VEGF (mouse) [2] = molecular target: mouse VEGF (mouse) (UniProt Q00731); assay: cell-based or functional assay
# human VEGF (human) [3] = molecular target: human VEGF (human) (UniProt P15692); assay: cell-based or functional assay
# rat VEGF (rat) [4] = molecular target: rat VEGF (rat) (UniProt P16612); assay: cell-based or functional assay; remark: listed apart in the source
# mouse VEGF (mouse) [5] = molecular target: mouse VEGF (mouse) (UniProt Q00731); assay: cell-based or functional assay; remark: listed apart in the source
# biotinylated VEGF165 [6] = molecular target: biotinylated VEGF165 (UniProt P15692); assay: competition binding ELISA: biotinylated VEGF165 premixed with the binder, then on coated VEGFR1-Fc (blocked partner), OD 450 nm
# biotinylated VEGF165 [7] = molecular target: biotinylated VEGF165 (UniProt P15692); assay: competition binding ELISA: blocks biotinylated VEGF165 binding to coated VEGFR1-Fc
# human VEGF (human) [8] = molecular target: human VEGF (human) (UniProt P15692); assay: cell-based or functional assay; remark: listed apart in the source
# [9] = molecular target: LRP6 on HEK293S cells (human) (UniProt O75581); assay: cell-based or functional assay
# Chain of LRP6 on HEK293S cells (human) (O75581 20-1613): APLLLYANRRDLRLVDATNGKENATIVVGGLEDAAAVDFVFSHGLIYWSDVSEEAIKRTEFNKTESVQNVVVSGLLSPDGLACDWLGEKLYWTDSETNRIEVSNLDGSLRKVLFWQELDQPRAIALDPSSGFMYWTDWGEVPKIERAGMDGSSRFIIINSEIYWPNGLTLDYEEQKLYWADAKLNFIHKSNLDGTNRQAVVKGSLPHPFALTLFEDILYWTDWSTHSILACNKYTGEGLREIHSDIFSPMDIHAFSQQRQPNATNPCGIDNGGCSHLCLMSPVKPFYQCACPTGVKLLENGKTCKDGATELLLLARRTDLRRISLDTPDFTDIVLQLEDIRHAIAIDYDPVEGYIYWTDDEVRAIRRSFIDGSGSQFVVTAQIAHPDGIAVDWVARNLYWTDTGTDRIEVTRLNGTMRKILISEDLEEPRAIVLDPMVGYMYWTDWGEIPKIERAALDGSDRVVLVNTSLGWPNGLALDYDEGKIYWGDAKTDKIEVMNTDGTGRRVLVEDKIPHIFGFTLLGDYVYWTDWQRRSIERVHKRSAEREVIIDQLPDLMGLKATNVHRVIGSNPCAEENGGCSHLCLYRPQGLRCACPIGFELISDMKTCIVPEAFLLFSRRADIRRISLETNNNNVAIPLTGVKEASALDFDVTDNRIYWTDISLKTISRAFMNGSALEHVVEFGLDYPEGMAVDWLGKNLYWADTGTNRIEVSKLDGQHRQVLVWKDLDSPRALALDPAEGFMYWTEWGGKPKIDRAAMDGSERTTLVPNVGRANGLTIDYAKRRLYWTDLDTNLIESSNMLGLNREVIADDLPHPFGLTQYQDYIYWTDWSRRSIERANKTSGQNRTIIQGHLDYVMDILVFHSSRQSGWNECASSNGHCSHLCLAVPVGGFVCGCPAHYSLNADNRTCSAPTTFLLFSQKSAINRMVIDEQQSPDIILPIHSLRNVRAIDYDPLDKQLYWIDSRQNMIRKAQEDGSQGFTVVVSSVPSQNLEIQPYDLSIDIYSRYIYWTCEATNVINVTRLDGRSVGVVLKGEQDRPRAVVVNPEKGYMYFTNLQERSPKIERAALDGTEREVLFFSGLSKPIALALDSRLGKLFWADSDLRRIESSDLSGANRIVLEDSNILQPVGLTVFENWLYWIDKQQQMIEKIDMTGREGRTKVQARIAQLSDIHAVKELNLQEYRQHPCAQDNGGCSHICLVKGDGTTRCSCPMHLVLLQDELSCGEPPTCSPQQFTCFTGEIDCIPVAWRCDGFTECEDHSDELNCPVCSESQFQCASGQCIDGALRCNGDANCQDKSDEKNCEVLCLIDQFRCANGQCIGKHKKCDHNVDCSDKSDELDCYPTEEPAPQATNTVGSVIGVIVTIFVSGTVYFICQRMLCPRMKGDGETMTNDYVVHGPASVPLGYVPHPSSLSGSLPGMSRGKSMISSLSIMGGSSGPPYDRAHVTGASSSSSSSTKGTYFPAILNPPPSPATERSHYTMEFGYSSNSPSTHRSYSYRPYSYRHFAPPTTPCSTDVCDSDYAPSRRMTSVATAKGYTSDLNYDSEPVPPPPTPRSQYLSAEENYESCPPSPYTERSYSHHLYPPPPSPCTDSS
# Chain of human VEGF (human) (P15692 other isoform, or with tags, fused parts or gaps limits assumed): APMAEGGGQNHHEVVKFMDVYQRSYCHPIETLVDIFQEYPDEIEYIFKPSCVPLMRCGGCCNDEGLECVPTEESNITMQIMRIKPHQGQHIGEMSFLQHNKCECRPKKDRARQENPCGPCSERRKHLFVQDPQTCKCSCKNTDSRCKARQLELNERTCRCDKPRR
# Chain of mouse VEGF (mouse) (Q00731 other isoform, or with tags, fused parts or gaps limits assumed): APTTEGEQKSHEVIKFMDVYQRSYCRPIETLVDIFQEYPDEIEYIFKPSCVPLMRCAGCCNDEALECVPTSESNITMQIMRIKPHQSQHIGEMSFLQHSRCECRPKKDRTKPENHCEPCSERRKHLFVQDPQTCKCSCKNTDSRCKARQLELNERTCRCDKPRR
# Chain of biotinylated VEGF165 (P15692 other isoform, or with tags, fused parts or gaps limits assumed): as the sequence (P15692 other isoform, or with tags, fused parts or gaps limits assumed) above
# Chain of rat VEGF (rat) (P16612 other isoform, or with tags, fused parts or gaps limits assumed): as the sequence (Q00731 other isoform, or with tags, fused parts or gaps limits assumed) above, with S10A, I14V, I75V counted along it
substance,measurement,setting,value
G6 anti-VEGF antibody,"Inhibitory activity (IC50, nM) against VEGF in cell-based assays",rat VEGF (rat) [1],0.078 nM
same,"Inhibitory activity (IC50, nM) against VEGF in cell-based assays",mouse VEGF (mouse) [2],0.19 nM
same,"Inhibitory Activity (IC50, nM) against hVEGF in cell-based assays",human VEGF (human) [3],0.14 nM
same,"Inhibitory activity (IC50, nM) against VEGF in cell-based assays",human VEGF (human) [3],0.21 nM
same,"Inhibitory activity (IC50, nM) against VEGF in cell-based assays",rat VEGF (rat) [4],0.13 nM
same,"Inhibitory activity (IC50, nM) against VEGF in cell-based assays",mouse VEGF (mouse) [5],0.12 nM
same,IC50,biotinylated VEGF165 [6],200 pM
same,IC50,biotinylated VEGF165 [7],250 pM
Lucentis (Fab),"Inhibitory activity (IC50, nM) against VEGF in cell-based assays",human VEGF (human) [8],0.63 nM
same,"Inhibitory Activity (IC50, nM) against hVEGF in cell-based assays",human VEGF (human) [3],0.68 nM
anti-LRP6 inhibitory antibody YW210.09,"IC50, inhibition of Wnt1 signaling (luciferase reporter, HEK293S cells transfected by WNT1)",[9],28000 pM
